The target of assay [1] is T1, human AXL expressed on the cell surface of tumor cell lines (human, UniProt P30530 26-894).
T1 sequence (looked up): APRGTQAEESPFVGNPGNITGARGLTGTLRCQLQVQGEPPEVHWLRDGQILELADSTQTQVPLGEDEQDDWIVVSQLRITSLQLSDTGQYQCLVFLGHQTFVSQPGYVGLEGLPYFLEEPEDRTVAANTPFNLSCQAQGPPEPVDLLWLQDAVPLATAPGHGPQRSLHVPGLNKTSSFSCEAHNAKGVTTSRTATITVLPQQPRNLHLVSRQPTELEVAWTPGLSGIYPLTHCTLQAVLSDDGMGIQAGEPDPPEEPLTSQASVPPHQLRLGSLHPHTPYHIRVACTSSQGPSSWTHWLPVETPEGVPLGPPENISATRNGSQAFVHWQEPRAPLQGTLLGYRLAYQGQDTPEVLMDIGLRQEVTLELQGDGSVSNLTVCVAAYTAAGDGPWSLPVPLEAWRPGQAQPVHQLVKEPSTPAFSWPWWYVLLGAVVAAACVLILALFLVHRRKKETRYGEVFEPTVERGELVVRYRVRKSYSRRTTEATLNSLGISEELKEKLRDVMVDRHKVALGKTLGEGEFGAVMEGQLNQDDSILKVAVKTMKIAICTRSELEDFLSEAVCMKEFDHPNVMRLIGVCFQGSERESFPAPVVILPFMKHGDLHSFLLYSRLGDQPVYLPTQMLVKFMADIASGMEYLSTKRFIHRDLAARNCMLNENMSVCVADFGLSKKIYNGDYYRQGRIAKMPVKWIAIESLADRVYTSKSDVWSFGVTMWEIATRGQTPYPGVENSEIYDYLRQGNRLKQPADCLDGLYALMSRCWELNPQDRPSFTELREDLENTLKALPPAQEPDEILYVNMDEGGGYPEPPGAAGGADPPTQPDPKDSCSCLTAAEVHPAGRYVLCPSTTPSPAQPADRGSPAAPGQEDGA
Put plainly: cell-based or functional assay.

Assay [2] deals with T2, recombinant cynomolgus AXL extracellular domain (cynomolgus).
T2 construct: range 1-449; also called Cyno AXL; cyno AXL ECD
Description: SPR Biacore T200, mAb captured on anti-Fc, AXL ECD flowed, single-cycle kinetics. As to the method:
(§1) Surface plasmon resonance. For murine mAbs, binding to human and cynomolgus AXL ECD was assessed using a Biacore T200 instrument. Briefly, either anti-mouse or anti-human Fc antibody was immobilized on a research-grade CM5 series S sensor chip using amine coupling in acetate buffer. Murine or recombinant chimeric murine-human mAbs (mouse VH/VL; human constant regions) were captured, then recombinant human or cyno AXL ECD was flowed over the surface at different concentration ranges (0.1-500 nM) depending on the antibody. The running buffer was PBS/Tween-20 and the flow rate 100 uL/min. All binding studies were performed at 25° C. Surfaces were regenerated using 10 mM glycine, pH 1.5.
(In general: Surface plasmon resonance follows binding to a sensor surface in real time, without labels.)

In assay [3] the target is T3, recombinant human AXL extracellular domain, C-terminally His8-tagged (rhAXL-ECD) (human, UniProt P30530 26-451).
T3 construct: Made in CHO cells; also called (rh)AXL-ECD His8; human AXL ECD
T3 sequence: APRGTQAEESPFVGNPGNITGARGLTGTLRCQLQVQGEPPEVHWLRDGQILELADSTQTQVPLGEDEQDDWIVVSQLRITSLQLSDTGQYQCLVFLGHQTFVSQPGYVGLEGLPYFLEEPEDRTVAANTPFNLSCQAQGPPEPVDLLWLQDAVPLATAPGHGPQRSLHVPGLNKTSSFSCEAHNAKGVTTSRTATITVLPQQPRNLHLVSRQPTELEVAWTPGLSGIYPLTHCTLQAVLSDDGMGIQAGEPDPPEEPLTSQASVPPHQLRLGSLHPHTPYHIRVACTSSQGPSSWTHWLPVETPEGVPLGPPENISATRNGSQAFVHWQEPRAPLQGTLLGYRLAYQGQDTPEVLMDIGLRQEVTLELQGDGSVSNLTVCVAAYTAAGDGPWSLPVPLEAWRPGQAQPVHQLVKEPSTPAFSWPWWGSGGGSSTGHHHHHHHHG
The description is as above. Here is the method:
as §1

In assay [4] the target is T3, recombinant human AXL extracellular …. Description: SPR, AXL ECD immobilized, VHH monomer flowed, multi-cycle kinetics. As to the method:
(§2) For VH Hs and VHH-Fcs, binding to human and cynomolgus AXL ECD was assessed using either a Biacore T200 instrument or a Biacore 3000 instrument. Either human AXL ECD or anti-human Fc antibody was immobilized on a research-grade CM5 series S sensor chip (T200, rhAXL ECD) or a C1 sensor chip (3000, anti-human Fc) using amine coupling in acetate buffer. VHH-Fcs were captured on anti-human Fc surfaces. Either monomeric VHHs (for rhAXL ECD surfaces) or human and cyno AXL ECD (for VHH-Fc surfaces) were flowed over the surfaces at different concentration ranges. Running buffers were HBS-EP (3000) and HBS-EP+(T200). Flow rates were 10-40 ul/min. All binding studies were performed at 25° C. Surfaces were regenerated using 10 mM glycine, pH 1.5.

The target is the same in assay [5]. Description: SPR, AXL ECD immobilized, VHH monomer flowed, single-cycle kinetics. As to the method:
as §2

B1: mIgG-F149-4G4-DM1 (antibody, V domains shown)
VH: QIQLVQSGPELKKPGETVKISCKTSGYTFTYYGINWVKQAPGKGLEWMGWINTYLGEPTYADDFKGRFAFSLETSASTAYLQINNLRDEDMATYFCTRGTMSYSFDYWGQGTALTVSS
VL: QNVLTQSPAIMSASPGEEVTMTCRASSSVSSSYLHWYQQKSGASPKLWIYSTSKLASGVPARFSGSGSGTSYSLTISSVEAEDAATYYCHQYSGDPLTFGSGTKLEVK
modifications: DM1 through SMCC linker on lysine residues of the antibody; sites not given
On to B1, for which, in assay [1], the “IC50 of growth inhibition (CellTiterGlo, 5 days) of NCI-H292 cells, -Gas6” value (“IC50 of growth inhibition … -Gas6” for short) is 0.015 nM and the “IC50 of growth inhibition of NCI-H292 cells, +Gas6 (2 µg/mL)” value (“IC50 of growth inhibition … (2 µg/mL)” below) is 0.013 nM.

B2: hFC-F111-3C8 (antibody, human IgG1, kappa, V domains shown)
VH: QVQLQQPGAELGKPGTSVKLSCKASGYTFTSYWMHWVKRVPGQGLEWIGNINPNSTSADYNEKFKRKATLTVDKSSSTAYMQLSTLTSEDSAVYYCTRPLMGPYWYFDVWGTGTTVTVSS
VL: QIVLTQSPAIMSASPGEKVTISCSASSSVSYMYWYQQKPGSSPKPWIYRTSNLASGVPARFSGSGSGTSYSLTISSMEAEDAATYYCQQYHNYPPTFGGGTKLEIKR
notes: Chimeric mAb, human IgG1 / human kappa constant regions; also called mAb F111-3C8; chimeric F111-3C8
Usually Kd stands for the free concentration of one partner at which half of the binding sites on the other are occupied at equilibrium, for simple one-to-one binding. Broadly, the koff is the first-order rate constant of dissociation. What is called kon is the second-order rate constant of association. Turning to B2, in assay [2], the Kd was determined as 18 nM, the dissociation rate constant (koff) worked out at 0.0011 s⁻¹ and the kon was 60000 M⁻¹ s⁻¹. Moreover, in assay [3], the dissociation constant (Kd) stood at 12 nM, the koff was 0.001 s⁻¹ and the kon came to 86000 M⁻¹ s⁻¹.

B3: mIgG-F155-3C7-DM1 (antibody, V domains shown)
VH: QVQLQQPGTELVKPGASVKLSCKASGYIFTNFWINWVKQRPGQGLEWIGNIFPGSNSSNYNEKFKNKATLTVDKSSSTAYMHLSSLTSEDSAVYYCVRDYYGGSPDYWGQGTTLTVSS
VL: DIVMSQSPSSLAVSAGEKVTMSCKSSQSLLNSKTRKNYLAWYQQKPGQSPKLLIYWASTRESGVPARFTGSGSGTDFTLTISSVQAEDLAIYYCKHSYNLWTFGGGTKLEIR
modifications: DM1 through SMCC linker on lysine residues of the antibody; sites not given
Take B3: in assay [1], the “IC50 of growth inhibition … -Gas6” value is 0.327 nM and the “IC50 of growth inhibition … (2 µg/mL)” value came out at 3.9 nM.

B4: NRC-sdAb005 (VHH monomer) (VHH)
VHH: QVKLEESGGGLAQAGGSLRLSCAASGSISSINTIGWFRQAPGKQRELVAASDSGANRNYADSVKGRFTISRDNAKNTVYLQMNNLKPEDTAIYYCRAWGTGTISTMYWGQGTQVTVSS
notes: Llama VHH monomer; not shown: 6xHis and Myc tags
As for B4, in assay [4], the Kd was 58 nM, the off-rate (koff) worked out at 0.0097 s⁻¹ and the on-rate constant (kon) is 170000 M⁻¹ s⁻¹.

B5: NRC-sdAb003 (VHH monomer) (VHH)
VHH: QVQLVESGGGLVQAGGSLRLSCAASGVTLDYTAIGWFRQAPGKERELVAAITSGGNTDYAESAKGRFRISRDNSKNTIYLQMNSLKPEDTGVYYCAARRGGARGEYDYWDQGTQVTVSS
notes: as for B4
On to B5, for which, in assay [5], the equilibrium dissociation constant (Kd) was determined as 955 nM, the off-rate constant (koff) was 0.0054 s⁻¹ and the on-rate (kon) turned out to be 8500 M⁻¹ s⁻¹.

B6: hFc-F111-5E9-VC-MMAE (antibody, human IgG1, kappa, V domains shown)
VH: QIQLVQSGPELKKPGETVKISCKASGYTFTKYGMNWVKQAPGKGLKWMGWINTYTGEPTYADDFKGRFAFSLETSASTAYLQINNLTTEDMVTYFCAKGGYYSNPIYPMDYWGQGTSVTVSS
VL: DIQMTQTTSSLSASLGDRVTISCRASQDINNYLNWYQQKPDGTVKLLIYYISRLHSGVPSRFSGSGSGTDYSLTISNLELEDVATYFCQQGNTLPFTFGSGTKLEIKR
modifications: VC-MMAE conjugate; attachment sites not given
For B6, the “IC50 of growth inhibition … -Gas6” value in assay [1] is around 1 nM.

B7: hFc-F107-7H5-DM1 (antibody, human IgG1, kappa, V domains shown)
VH: QVQLQQPGAELVKPGASVKLSCKASGYTFTSYWINWVKQRPGQGLEWIGNIYPDSSSTNYNEKFKSKATLTVDKSSTTAYIQFSSLTSEDSAVYYCTRDTYGGSPDYWGQGTTLTVSS
VL: DIVMSQSPSSLAVSAGEKVTMSCKSSQSLLNSRTRKIYLAWYQQKPGQSPKLLIYWASTRQSGVPDRFTGSGSGTDFTLTISSVQAEDLAVYYCKQSYNLWTFGGGTKLEIKR
modifications: DM1 through SMCC linker on lysine residues; sites not given
On to B7, for which, in assay [1], the “IC50 of growth inhibition … -Gas6” value was found to be 0.014 nM and the “IC50 of growth inhibition … (2 µg/mL)” value is 0.098 nM.

B8: hFc-F107-8D12-DM1 (antibody, human IgG1, kappa, V domains shown)
VH: QVQLQQPGAELVKPGASVQLSCKASGYTFISFWINWVKQRPGQGLEWMGNIFPGSSSTNYNEKFKSKATLTVDKSSSTAYMQLSSLTSEDSAVYFCARDYYGGSPDYWGQGTTLTVSS
VL: DIVMSQSPSSLAVSAGERVTMSCKSSQSLLNTRTRKNYLAWYQQKPGQSPKLLIYWASTRESGVPDRFTGSGSGTDFTLTISSVQAEDLAVYYCKQSYNLWTFGGGTKLEIKR
modifications: DM1 through SMCC linker on lysine residues; sites not given
Regarding B8, in assay [1], the “IC50 of growth inhibition … -Gas6” value was 0.011 nM and the “IC50 of growth inhibition … (2 µg/mL)” value worked out at 0.296 nM.

B9: NRC-sdAb001 (VHH monomer) (VHH)
VHH: QVKLEESGGGLVQAGGSLRLSCTASASISSFDIMGWYRQAPGKQRELVAAITTLDIANYRDSVKGRFTISRDNAKNTVYLQMDSLKPEDTARYHCAAFQSDQNYWGQGTQVTVSS
notes: Llama VHH made as 6xHis- and Myc-tagged monomer in E. coli; not shown: 6xHis and Myc tags
For B9, in assay [5], the Kd came to 4 nM, the koff amounted to 0.037 s⁻¹ and the on-rate constant (kon) stood at 8.5e+06 M⁻¹ s⁻¹.

B10: NRC-sdAb006 (VHH monomer) (VHH)
VHH: QVKLEESGGGLVQAGASLRLSCVASESIFGFNTMGWYRQAPGNERELVASISNSKRTMYADSVKGRFTISRDNAKNTVNLQMNNLKPEDTAVYYCRAWGIITSATVYWGQGTQVTVSS
notes: as for B4
In the case of B10, in assay [4], the equilibrium dissociation constant (Kd) turned out to be 19 nM, the dissociation rate constant (koff) amounted to 0.0045 s⁻¹ and the kon amounted to 240000 M⁻¹ s⁻¹.
